# Results from US20250084188A1 (CHUNGBUK NATIONAL UNIVERSITY INDUSTRY ACADEMIC COOPERATION …, published 2025).
# Molecular target: T1, human chitinase-3-like protein 1 (hCHI3L1) (human, UniProt P36222 22-383)
# T1 construct: Antigen used for phage display panning and ELISA; also called YKL-40; CHI3L1 antigen protein
# Test: ELISA, purified IgG on CHI3L1 antigen protein
# T1 sequence (P36222 22-383 limits assumed): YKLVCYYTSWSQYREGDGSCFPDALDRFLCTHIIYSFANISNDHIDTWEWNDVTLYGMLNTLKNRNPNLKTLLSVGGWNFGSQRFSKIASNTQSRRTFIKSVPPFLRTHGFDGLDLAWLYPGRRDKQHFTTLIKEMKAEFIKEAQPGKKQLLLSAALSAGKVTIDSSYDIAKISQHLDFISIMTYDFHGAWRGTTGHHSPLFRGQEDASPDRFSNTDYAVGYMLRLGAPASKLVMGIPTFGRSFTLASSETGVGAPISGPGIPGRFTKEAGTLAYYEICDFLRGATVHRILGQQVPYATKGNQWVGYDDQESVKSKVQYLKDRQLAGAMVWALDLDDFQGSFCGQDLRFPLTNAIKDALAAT
row,Binder,binding result
1,"F4 (IgG) (antibody, V domains shown, Converted into the IgG form of human antibodies, expressed in ExpiCHO-S) VH: not shown VL: DIQMTQSPSSLSASVGDRVTITCRASQSISRWLNWYQQKPGKAPKLLIYAASRLQSGVPSRFSGSGSGTDFTLTISSLQPEDFATYYCQQSYSTPWTFGQGTKVEIK",binds
2,"C5 (IgG) (antibody, V domains shown, Converted into the IgG form of human antibodies, expressed in ExpiCHO-S) VH: EVQLVESGGGLVQPGGSLRLSCAASGFTFSSYAMSWVRQAPGKGLEWVSSISSSSGTTHYADSVKGRFTISRDNSKNTLYLQMNSLRAEDTAVYYCAKGGAFDYWGQGTLVTVSS VL: DIQMTQSPSSLSASVGDRVTITCRASQDISRWLNWYQQKPGKAPKLLIYAASTLQSGVPSRFSGSGSGTDFTLTISSLQPEDFATYYCQQSYSFPLTFGQGTKVEIK",binds
3,"F2 (IgG) (antibody, V domains shown, Converted into the IgG form of human antibodies, expressed in ExpiCHO-S) VH: EVQLVESGGGLAQPGGSLRLSCAASGFTFSSYAMHWVRQAPGKGLEWVSSIKSSGGSKNYADSVKGRFTISRDNSKNTLYLQMNSLRAEDTAVYYCAKGYGASFDFWGQGTLVTVSS VL: DIQMTQSPSSLSASVGDRVTITCRASQDISSWLNWYQQKPGKAPKLLIYAASRLQSGVPSRFSGSGSGTDFTLTISSLQPEDFATYYCQQAYSFPWTFGQGTKVEIK",binds
4,"H7 (IgG) (antibody, V domains shown, Converted into the IgG form of human antibodies, expressed in ExpiCHO-S) VH: EVQLVESGGGLVQPGGSLRLSCAASGFTFSSYGMHWVRQAPGKGLEWVSGISSSGGSKYYADSVKGRFTISRDNSKNTLYLQMNSLRAEDTAVYYCAKHGHQQMDFWGQGTLVTVSS VL: DIQMTQSPSSLSASVGDRVTITCRASQSISSWLNWYQQKPGKAPKLLIYAASRLQSGVPSRFSGSGSGTDFTLTISSLQPEDFATYYCQQTYSFPWTFGQGTKVEIK",binds
5,"A7 (IgG) (antibody, V domains shown, Converted into the IgG form of human antibodies, expressed in ExpiCHO-S) VH: EVQLVESGGGLVQPGGSLRLSCAASGFTFSDYAMSWVRQAPGKGLEWVSGISSSGGTIYYADSVKGRFTISRDNSKNTLYLQMNSLRAEDTAVYYCAKAIGSWADIWGQGTLVTVSS VL: DIQMTQSPSSLSASVGDRVTITCRASQDISNYLNWYQQKPGKAPKLLIYAASSLQSGVPSRFSGSGSGTDFTLTISSLQPEDFATYYCQQSYSFPYTFGQGTKVEIK",binds
6,"1E12 (IgG) (antibody, V domains shown, Converted into the IgG form of human antibodies, expressed in ExpiCHO-S) VH: EVQLVESGGGLVQPGGSLRLSCAASGFTFSSYAMHWVRQAPGKGLEWVSAISSSGGTKYYADSVKGRFTISRDNSKNTLYLQMNSLRAEDTAVYYCAKGLQGGAGAFDIWGQGTLVTVSS VL: DIQMTQSPSSLSASVGDRVTITCRASQSISNYLNWYQQKPGKAPKLLIYATSTLHSGVPSRFSGSGSGTDFTLTISSLQPEDFATYYCQQSYSFPWTFGQGTKVEIK",binds
7,"E7 (IgG) (antibody, V domains shown, Converted into the IgG form of human antibodies, expressed in ExpiCHO-S) VH: EVQLVESGGGLVQPGGSLRLSCAASGFTFSSYAMHWVRQAPGKGLEWVSAISSSGGSIYYADSVKGRFTISRDNSKNTLYLQMNSLRAEDTAVYYCAKQGLSFDIWGQGTLVTVSS VL: DIQMTQSPSSLSASVGDRVTITCRASQSISNWLNWYQQKPGKAPKLLIYATSRLQSGVPSRFSGSGSGTDFTLTISSLQPEDFATYYCQQSYSFPYTFGQGTKVEIK",binds
8,"H1 (IgG) (antibody, V domains shown, Converted into the IgG form of human antibodies, expressed in ExpiCHO-S) VH: EVQLVESGGGLVQPGGSLRLSCAASGFTFSSYAMSWVRQAPGKGLEWVSAIRSSGGTTYYADSVKGRFTISRDNSKNTLYLQMNSLRAEDTAVYYCAKSQSTVADYWGQGTLVTVSS VL: DIQMTQSPSSLSASVGDRVTITCRASQSISNWLNWYQQKPGKAPKLLIYATSRLQSGVPSRFSGSGSGTDFTLTISSLQPEDFATYYCQQSYSFPLTFGQGTKVEIK",binds
9,"A5 (IgG) (antibody, V domains shown, Converted into the IgG form of human antibodies, expressed in ExpiCHO-S) VH: not shown VL: DIQMTQSPSSLSASVGDRVTITCRASQSISRWLNWYQQKPGKAPKLLIYATSTLQSGVPSRFSGSGSGTDFTLTISSLQPEDFATYYCQQSYSFPWTFGQGTKVEIK",binds
10,"D2 (IgG) (antibody, V domains shown, Converted into the IgG form of human antibodies, expressed in ExpiCHO-S) VH: EVQLVESGGGLVQPGGSLRLSCAASGFTFSSYAMHWVRQAPGKGLEWVSAISSSSGTIYYADSVKGRFTISRDNSKNTLYLQMNSLRAEDTAVYYCAKDFGAVFDYWGQGTLVTVSS VL: not shown",binds

# Molecular target: T1, human chitinase-3-like protein 1 …
# Test: monoclonal phage ELISA, phage-displayed Fab on CHI3L1
row,Binder,binding result
1,"F2 Fab clone (phage-displayed) (Fab, V domains shown) VH: EVQLVESGGGLAQPGGSLRLSCAASGFTFSSYAMHWVRQAPGKGLEWVSSIKSSGGSKNYADSVKGRFTISRDNSKNTLYLQMNSLRAEDTAVYYCAKGYGASFDFWGQGTLVTVSS VL: DIQMTQSPSSLSASVGDRVTITCRASQDISSWLNWYQQKPGKAPKLLIYAASRLQSGVPSRFSGSGSGTDFTLTISSLQPEDFATYYCQQAYSFPWTFGQGTKVEIK",binds
2,"A7 Fab clone (phage-displayed) (Fab, V domains shown) VH: EVQLVESGGGLVQPGGSLRLSCAASGFTFSDYAMSWVRQAPGKGLEWVSGISSSGGTIYYADSVKGRFTISRDNSKNTLYLQMNSLRAEDTAVYYCAKAIGSWADIWGQGTLVTVSS VL: DIQMTQSPSSLSASVGDRVTITCRASQDISNYLNWYQQKPGKAPKLLIYAASSLQSGVPSRFSGSGSGTDFTLTISSLQPEDFATYYCQQSYSFPYTFGQGTKVEIK",binds
3,"C5 Fab clone (phage-displayed) (Fab, V domains shown) VH: EVQLVESGGGLVQPGGSLRLSCAASGFTFSSYAMSWVRQAPGKGLEWVSSISSSSGTTHYADSVKGRFTISRDNSKNTLYLQMNSLRAEDTAVYYCAKGGAFDYWGQGTLVTVSS VL: DIQMTQSPSSLSASVGDRVTITCRASQDISRWLNWYQQKPGKAPKLLIYAASTLQSGVPSRFSGSGSGTDFTLTISSLQPEDFATYYCQQSYSFPLTFGQGTKVEIK",binds
4,"E7 Fab clone (phage-displayed) (Fab, V domains shown) VH: EVQLVESGGGLVQPGGSLRLSCAASGFTFSSYAMHWVRQAPGKGLEWVSAISSSGGSIYYADSVKGRFTISRDNSKNTLYLQMNSLRAEDTAVYYCAKQGLSFDIWGQGTLVTVSS VL: DIQMTQSPSSLSASVGDRVTITCRASQSISNWLNWYQQKPGKAPKLLIYATSRLQSGVPSRFSGSGSGTDFTLTISSLQPEDFATYYCQQSYSFPYTFGQGTKVEIK",binds
5,"1E12 Fab clone (phage-displayed) (Fab, V domains shown) VH: EVQLVESGGGLVQPGGSLRLSCAASGFTFSSYAMHWVRQAPGKGLEWVSAISSSGGTKYYADSVKGRFTISRDNSKNTLYLQMNSLRAEDTAVYYCAKGLQGGAGAFDIWGQGTLVTVSS VL: DIQMTQSPSSLSASVGDRVTITCRASQSISNYLNWYQQKPGKAPKLLIYATSTLHSGVPSRFSGSGSGTDFTLTISSLQPEDFATYYCQQSYSFPWTFGQGTKVEIK",binds
6,"H7 Fab clone (phage-displayed) (Fab, V domains shown) VH: EVQLVESGGGLVQPGGSLRLSCAASGFTFSSYGMHWVRQAPGKGLEWVSGISSSGGSKYYADSVKGRFTISRDNSKNTLYLQMNSLRAEDTAVYYCAKHGHQQMDFWGQGTLVTVSS VL: DIQMTQSPSSLSASVGDRVTITCRASQSISSWLNWYQQKPGKAPKLLIYAASRLQSGVPSRFSGSGSGTDFTLTISSLQPEDFATYYCQQTYSFPWTFGQGTKVEIK",binds
7,"F4 Fab clone (phage-displayed) (Fab, V domains shown) VH: not shown VL: DIQMTQSPSSLSASVGDRVTITCRASQSISRWLNWYQQKPGKAPKLLIYAASRLQSGVPSRFSGSGSGTDFTLTISSLQPEDFATYYCQQSYSTPWTFGQGTKVEIK",binds
8,"A5 Fab clone (phage-displayed) (Fab, V domains shown) VH: not shown VL: DIQMTQSPSSLSASVGDRVTITCRASQSISRWLNWYQQKPGKAPKLLIYATSTLQSGVPSRFSGSGSGTDFTLTISSLQPEDFATYYCQQSYSFPWTFGQGTKVEIK",binds
9,"H1 Fab clone (phage-displayed) (Fab, V domains shown) VH: EVQLVESGGGLVQPGGSLRLSCAASGFTFSSYAMSWVRQAPGKGLEWVSAIRSSGGTTYYADSVKGRFTISRDNSKNTLYLQMNSLRAEDTAVYYCAKSQSTVADYWGQGTLVTVSS VL: DIQMTQSPSSLSASVGDRVTITCRASQSISNWLNWYQQKPGKAPKLLIYATSRLQSGVPSRFSGSGSGTDFTLTISSLQPEDFATYYCQQSYSFPLTFGQGTKVEIK",binds
10,"D2 Fab clone (phage-displayed) (Fab, V domains shown) VH: EVQLVESGGGLVQPGGSLRLSCAASGFTFSSYAMHWVRQAPGKGLEWVSAISSSSGTIYYADSVKGRFTISRDNSKNTLYLQMNSLRAEDTAVYYCAKDFGAVFDYWGQGTLVTVSS VL: not shown",binds
